Measured values reported in patent US20240075157A1 (MAGENTA THERAPEUTICS, published 2024).

How the values were obtained:
hFcγR2B [1] = molecular target: T1, hFcγR2B (human, UniProt P31994 46-217, tagged with biotin or histidine (which one is not stated for this receptor)); assay: BLI, Bio-hFcR2B
T1 sequence (looked up): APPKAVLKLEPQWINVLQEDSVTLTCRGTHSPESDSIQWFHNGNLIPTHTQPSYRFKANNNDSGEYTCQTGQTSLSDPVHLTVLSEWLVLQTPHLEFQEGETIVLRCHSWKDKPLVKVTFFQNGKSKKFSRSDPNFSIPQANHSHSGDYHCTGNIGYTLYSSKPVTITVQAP

hFcγR2B [2] = molecular target: T1, hFcγR2B; assay: BLI
Description: (§1) To identify Fc modifications that abrogate Fc gamma receptor binding and thereby silence antibody effector functions, IgG antibodies containing one or more amino acid substitution in the Fc region were assessed in an Octet binding assay to measure their ability to bind to different Fc gamma receptors.
(§2) The binding assays were performed at 25° C. in phosphate buffered saline with (0.1% BSA, 0.02% Tween-20) using Bio-Layer Interferometry Device (ForteBio).

hFcγR3A 176V [3] = molecular target: T2, hFcγR3A 176V (human, UniProt P08637 17-208, tagged with biotin or histidine (which one is not stated for this receptor)); assay: BLI
T2 sequence (P08637 17-208 F176V limits assumed): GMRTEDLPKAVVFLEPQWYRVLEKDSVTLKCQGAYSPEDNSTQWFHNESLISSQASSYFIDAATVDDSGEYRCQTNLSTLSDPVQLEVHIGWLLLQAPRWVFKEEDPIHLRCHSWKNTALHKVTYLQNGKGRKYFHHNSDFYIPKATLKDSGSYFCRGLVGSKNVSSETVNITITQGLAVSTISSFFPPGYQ

hFcγR3A 176V [4] = molecular target: T2, hFcγR3A 176V; assay: BLI, Bio-hFcR3A 176V
Description: as §1, §2

- Normalized Response (hFcγR2B [1]): 4 % of WT
- binding result (hFcγR2B [2]): no binding (tested: 300 nM)
- binding result (hFcγR3A 176V [3]): no binding (tested: 300 nM)
- Normalized Response (hFcγR3A 176V [4]): 1 % of WT
B1: Ab2 D265C N297Q H435A (antibody, human IgG1, kappa, N297Q)
heavy: EVQLVQSGAEVKKPGESLKISCKGSGYSFTNYWIGWVRQMPGKGLEWMAIINPRDSDTRYRPSFQGQVTISADKSISTAYLQWSSLKASDTAMYYCARHGRGYEGYEGAFDIWGQGTLVTVSSASTKGPSVFPLAPSSKSTSGGTAALGCLVKDYFPEPVTVSWNSGALTSGVHTFPAVLQSSGLYSLSSVVTVPSSSLGTQTYICNVNHKPSNTKVDKKVEPKSCDKTHTCPPCPAPELLGGPSVFLFPPKPKDTLMISRTPEVTCVVVCVSHEDPEVKFNWYVDGVEVHNAKTKPREEQYQSTYRVVSVLTVLHQDWLNGKEYKCKVSNKALPAPIEKTISKAKGQPREPQVYTLPPSRDELTKNQVSLTCLVKGFYPSDIAVEWESNGQPENNYKTTPPVLDSDGSFFLYSKLTVDKSRWQQGNVFSCSVMHEALHNAYTQKSLSLSPGK
light: not shown
notes: copies: 2 + 2
